One may read the stoichiometry N as the number of molecules, sites or subunits per partner or assembly.

Experiment [1] deals with DsLOV, short LOV protein from Dinoroseobacter shibae DFL12T (Dinoroseobacter shibae DFL12T). The experiment in a line: small angle X-ray scattering (SAXS); 7.2 and 14.8 mg/ml DsLOV in 10 mM NaH2PO4, 300 mM NaCl, pH 8.0, 10°C; beamline BM29, ESRF.
Experiment [2] has the same target. The experiment in a line: SEC; analytical size-exclusion chromatography; data not shown; conditions not given.

As to “DsLOV, short LOV protein from Dinoroseobacter shibae DFL12T (natural protein)”, the stoichiometry N in experiment [1] and in experiment [2] was 2 in each case.

The record behind these values is PMC4335406.
